This is an account of results in the supplement of paper PMC10567573.

± gives the standard deviation.

The data set is described as follows: protein stability index of a GFP-peptide fusion (GPS, HEK-293T) (PSI 1-6); higher = more stable.
Where [1] appears, read: treatment: DMSO, c terminus: a fixed tail appended.
[2] abbreviates: treatment: MLN4924 1 uM, 8 h, c terminus: a fixed tail appended.
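Note: 24-mer peptide tiles fused after GFP, lentivirally expressed, FACS-sorted into six equal bins by GFP/DsRed ratio, decoded by Illumina sequencing, PSI is the read-weighted mean bin number.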

For VKEKFSPEAFTEQLYRYVTKLLV [ALG2], the protein stability index was 3.38 ± 0.3 (treatment: DMSO, c terminus: native) and 3.16 ± 0.16 (treatment: MLN4924 1 uM, 8 h, c terminus: native).
In the case of VKGCSMYVALFPCNECAKLIIQAG [DCTD], the protein stability index is, setting by setting: under setting [1], 2.97 ± 0.37; under setting [2], 2.8 ± 0.49.
Consider VKKDHVALQVPRGKEDSTLQLLRE [CBY2], for which the protein stability index was found to be 4.26 ± 0.069 under setting [1] and 4.37 ± 0.07 under setting [2].
The matching figures for VLDVNNQSFREQEEPSNKRVRPLA [NET1]: 3.46 ± 0.2 and 3.99 ± 0.28.
Sequence VLEVRTENLKQQRSRREQFSRAPV [STX5] gave a protein stability index under setting [1] of 3.4 ± 0.45 and a protein stability index under setting [2] of 3.63 ± 0.41.
The matching figures for VLFSTHTLDKCGICQGDGSSCTHV [ADAMTSL2]: 3.8 ± 0.22 and 4.09 ± 0.19.
As to VLFSVAGGLFVGKEGPMIHSGSVV [CLCN6], the protein stability index is, setting by setting: under setting [1], 2.58 ± 0.34; under setting [2], 2.74 ± 0.5.
Take VLGSQDALPIATAFTEYVHAYFRG [FCHO1]: the protein stability index under setting [1] is 2.51 ± 0.25 and the protein stability index under setting [2] came out at 2.43 ± 0.21.
The like results for VLIDLWKITKVMDVRLDREHRVAG [CLPTM1] were, in that order, 2.49 ± 0.68 and 2.57 ± 0.83.
For VLISNHVTPFDHNIVNLLTTCSTP [AUP1], the protein stability index reads like this: under setting [1], 2.59 ± 0.66; under setting [2], 2.48 ± 0.35.
The matching figures for VLLLGSVDGRHLLRTLSRAKFWPR [DNAAF3]: 2.08 ± 0.36 and 2.27 ± 0.15.
As for VLNDRFQRQKYLSLQQMQELSNIL [NANOGP8], the protein stability index was found to be 2.52 ± 0.11 under setting [1] and 2.64 ± 0.32 under setting [2].
VLSLVKKHYRLQFYMFAWTHVTLL [CDS1]: the protein stability index by setting is: under setting [1], 3.25 ± 0.56; under setting [2], 2.8 ± 0.56.
The like results for VLVLCVFNSILPGVLILFLTFFAF [SOAT1] were, in that order, 3.37 ± 0.25 and 3.17 ± 0.22.
The like results for VMARTRLVVPNKGYSSLDQSPDEK [FAM219A] were, in that order, 4.62 ± 0.34 and 3.88 ± 0.42.
The like results for VMLTLSDSKHVVLPVDDDSDLNVV [RBBP5] were, in that order, 3.51 ± 0.14 and 3.49 ± 0.25.
As for VMTLPSDLRKHRRKLLSPVSREEN [PPFIA4], the protein stability index is 3.61 ± 0.24 under setting [1] and 3.9 ± 0.49 under setting [2].
The matching figures for VNDLAVGLRRLGLHRTEGELQKIV [SLC25A25]: 3.03 ± 0.074 and 3.02 ± 0.28.
The like results for VPPRRATISSWRNDRMSTRHDGYA [RBMY1A1] were, in that order, 3.37 ± 0.092 and 3.4 ± 0.36.
The matching figures for VQRIMVANIEEVLQRGEALSALDS [SEC22B]: 2.85 ± 0.17 and 3.05 ± 0.39.
Regarding VQTGLDQYQQVPVEIVKSDFHKPF [IQUB], the protein stability index reads like this: under setting [1], 3.5 ± 0.22; under setting [2], 3.52 ± 0.33.
The matching figures for VRRECWFLPTALLCAYGFFASLRP [SLC19A2]: 2.95 ± 0.29 and 2.93 ± 0.28.
On to VSISVVHGNLSEEAAKQMRSRGKV [CPOX], for which the protein stability index under setting [1] was determined as 3.37 ± 0.47 and the protein stability index under setting [2] worked out at 3.47 ± 0.52.
The matching figures for VSNTYVKQKTSAALSTMGTLICRK [TPD52L3]: 3.41 ± 0.55 and 2.98 ± 0.41.
For the sequence VSREENREDKATIKCETSPPSSPR [PPFIA4], the protein stability index turned out to be 5.49 ± 0.48 under setting [1] and 5.53 ± 0.21 under setting [2].
The like results for VSSLSEVEEVDMAEEFEQPTLSCE [ELOA2] were, in that order, 5.57 ± 0.27 and 5.52 ± 0.17.
For the sequence VTQMNHIPMHIDHDRNMDWVSTQL [FADS1], the protein stability index is, setting by setting: under setting [1], 3.14 ± 0.45; under setting [2], 3.02 ± 0.21.
The matching figures for VTSDVNKLSSFYSLKLIKRLYVDK [SERPINB5]: 2.18 ± 0.18 and 2.29 ± 0.18.
VTTTSSASVTTTSNASGRRTSDVR [KRT13] registered a protein stability index under setting [1] of 5.07 ± 0.15 and a protein stability index under setting [2] of 5.24 ± 0.15.
The like results for VVAGDTVSTGSTDNSPTSNSLEGG [ADAMTSL2] were, in that order, 5.39 ± 0.4 and 5.48 ± 0.15.
The matching figures for VVELLLAHGADPTHRLKDGSTMLI [ANKRD17]: 2.13 ± 0.34 and 2.27 ± 0.85.
The matching figures for VVFLSPLTTFQDQLNRRGEFIQEI [OAS1]: 2.47 ± 0.5 and 2.35 ± 0.48.
Regarding WAQYRQGEARFLPKDLDPSLCTHL [CHIT1], the protein stability index turned out to be 2.65 ± 0.31 under setting [1] and 2.78 ± 0.39 under setting [2].
The matching figures for WDLSEAWMQANYDPLSDSDSMTSQ [ELOA2]: 4.34 ± 0.33 and 4.45 ± 0.21.
The matching figures for WEALNMMGLYDGMEHLIYGEPRKL [MAGEA10]: 2.22 ± 0.59 and 2.45 ± 0.34.
With WFHAKSAELNKEVSTNTAMIQTSK [KRT13], the protein stability index was 4.09 ± 0.24 under setting [1] and 4.11 ± 0.11 under setting [2].
Take WGFGLEELYGLALRFFKEKDGKAF [ACBD3]: the protein stability index turned out to be 2.4 ± 0.12 under setting [1] and 2.39 ± 0.61 under setting [2].
The like results for WGGAPKEGSIWRGAQMEKEWARAL [ZSWIM9] were, in that order, 2.8 ± 0.28 and 2.75 ± 0.25.
Take WIAHSEKLPRKVLQHVSEPQAHQE [SPACA9]: the protein stability index by setting is: under setting [1], 4.11 ± 0.35; under setting [2], 4.05 ± 0.34.
The matching figures for WIPQAGPPELNYGATGECQNFLDP [ZNF449]: 4.29 ± 0.18 and 4.28 ± 0.27.
The matching figures for WKEWGFTGVQEVLSALLRATPGEY [SPAG8]: 2.06 ± 0.78 and 2.2 ± 0.53.
The matching figures for WLPLHYAAWQGHLPIVKLLAKQPG [RIPK4]: 1.94 ± 0.24 and 2.63 ± 0.81.
In the case of WMMQNLLLEEGGLVQVESVNLQVA [UFD1], the protein stability index amounted to 2.1 ± 0.29 under setting [1] and 2.33 ± 0.59 under setting [2].
The matching figures for WNILKTIALGQMLSLCICGTAITS [SLC35F2]: 3.03 ± 0.37 and 3.03 ± 0.71.
As to WVCQRSTVASMMHRQETVECLKKF [CAMK2B], the protein stability index reads like this: under setting [1], 2.73 ± 0.51; under setting [2], 2.9 ± 0.52.
Regarding WYQPSFHGVDLSALRGAAVDEYFR [CARM1], the protein stability index by setting is: under setting [1], 2.71 ± 0.18; under setting [2], 2.75 ± 0.34.
The like results for YDASAIDFSRCDMDGATLCNCALE [ELF3] were, in that order, 3.99 ± 0.32 and 4.02 ± 0.33.
YDPDYIQCPYCQRRFNENAADRHI [ZC2HC1A] showed a protein stability index under setting [1] of 3.84 ± 0.24 and a protein stability index under setting [2] of 4.16 ± 0.34.
The matching figures for YLGLPRLEFYRYYQQLKLEGPGEQ [SLC29A1]: 2.54 ± 0.39 and 2.58 ± 0.38.
The matching figures for YLHNHFIGEGMTKYDYLMTLHGVV [TENT5D]: 2.83 ± 0.6 and 2.48 ± 0.62.
As for YLHTNVALVAPLLRLENNHCHIEE [VPS39], the protein stability index by setting is: under setting [1], 2.33 ± 0.2; under setting [2], 2.74 ± 0.34.
For YMMAKKHLEINPDHPIVETLRQKA [HSP90AB1], the protein stability index came to 3.01 ± 0.33 under setting [1] and 3.19 ± 0.39 under setting [2].
The matching figures for YNCGEESLQSCMHFQPNSPASDLE [NANOGP8]: 4.51 ± 0.19 and 4.17 ± 0.45.
The matching figures for YQARKPLWFYNTSLKFFLNKPMLA [RHOBTB3]: 2.67 ± 0.57 and 1.97 ± 0.19.
The like results for YQSYFKTIEELQQKILCSKSENAR [KRT33B] were, in that order, 2.57 ± 0.38 and 2.84 ± 0.49.
As to YRHFLKSPNFDGWFKTRRKEMTQK [DENND6A], the protein stability index reads like this: under setting [1], 2.83 ± 0.37; under setting [2], 3.24 ± 0.12.
The matching figures for YRWQGRRWEPSGKAEPRLPDRVYI [TBX6]: 2.11 ± 0.26 and 2.22 ± 0.37.
As to YWKDTRTSGVVFTGLMVSLLCLLH [RTN2], the protein stability index runs as follows: under setting [1], 2.3 ± 0.24; under setting [2], 2.2 ± 0.28.
The matching figures for YYFGPCGKYNAMVLELLGPSLEDL [CSNK1G3]: 3 ± 1.3 and 2.66 ± 0.43.
